According to US20120331590A1:

Assays:
[1] = biological target: BBMV's from FAW (brush border membrane vesicle proteins of Spodoptera frugiperda larval midgut); experiment: heterologous competition: unlabeled Cry1Be against 0.5 nM 125I Cry1Da on FAW BBMV's (the sites that Cry1Da binds, not Cry1Be's own sites)
[2] = biological target: BBMV's from FAW (brush border membrane vesicle proteins of Spodoptera frugiperda larval midgut); experiment: homologous competition: unlabeled Cry1Be displacing 0.5 nM 125I Cry1Be from FAW BBMV's
[3] = biological target: BBMV's from FAW (brush border membrane vesicle proteins of Spodoptera frugiperda larval midgut); experiment: homologous competition: unlabeled Cry1Da displacing 0.5 nM 125I Cry1Da from FAW BBMV's
[4] = biological target: BBMV's from FAW (brush border membrane vesicle proteins of Spodoptera frugiperda larval midgut); experiment: heterologous competition: 1,000 nM unlabeled Cry1Da against 0.5 nM 125I Cry1Be on FAW BBMV's (the sites that Cry1Be binds)

Which IC50 [1] does the source give for “Cry1Be (unlabeled, truncated Cry toxin) (from UniProt O85805 35-641) (ligand)” here?
The IC50 was over 1000 nM.

And the IC50 [2]?
Its IC50 is 2 nM.

What does the source list for “Cry1Da (unlabeled, truncated Cry toxin) (from UniProt P19415 28-594) (ligand)”?
IC50 [3]: 1.5 nM; percent displacement of 125I Cry1Be [4]: < 50%
